Measurements reported in patent US20190031771A1 (University of Pennsylvania, published 2019).

What was measured:
human ADAMTS13 = target: T1, human ADAMTS13 (human, UniProt Q76LX8 75-1427); assay: phage ELISA on ADAMTS13-coated plates (positive: >10-fold absorbance above background)
T1 construct: ELISA: full-length recombinant ADAMTS13 coated on plates (Technoclone); Activity assays: endogenous ADAMTS13 of normal human plasma; also called full-length human recombinant ADAMTS13; VWF-cleaving protease
T1 sequence (looked up): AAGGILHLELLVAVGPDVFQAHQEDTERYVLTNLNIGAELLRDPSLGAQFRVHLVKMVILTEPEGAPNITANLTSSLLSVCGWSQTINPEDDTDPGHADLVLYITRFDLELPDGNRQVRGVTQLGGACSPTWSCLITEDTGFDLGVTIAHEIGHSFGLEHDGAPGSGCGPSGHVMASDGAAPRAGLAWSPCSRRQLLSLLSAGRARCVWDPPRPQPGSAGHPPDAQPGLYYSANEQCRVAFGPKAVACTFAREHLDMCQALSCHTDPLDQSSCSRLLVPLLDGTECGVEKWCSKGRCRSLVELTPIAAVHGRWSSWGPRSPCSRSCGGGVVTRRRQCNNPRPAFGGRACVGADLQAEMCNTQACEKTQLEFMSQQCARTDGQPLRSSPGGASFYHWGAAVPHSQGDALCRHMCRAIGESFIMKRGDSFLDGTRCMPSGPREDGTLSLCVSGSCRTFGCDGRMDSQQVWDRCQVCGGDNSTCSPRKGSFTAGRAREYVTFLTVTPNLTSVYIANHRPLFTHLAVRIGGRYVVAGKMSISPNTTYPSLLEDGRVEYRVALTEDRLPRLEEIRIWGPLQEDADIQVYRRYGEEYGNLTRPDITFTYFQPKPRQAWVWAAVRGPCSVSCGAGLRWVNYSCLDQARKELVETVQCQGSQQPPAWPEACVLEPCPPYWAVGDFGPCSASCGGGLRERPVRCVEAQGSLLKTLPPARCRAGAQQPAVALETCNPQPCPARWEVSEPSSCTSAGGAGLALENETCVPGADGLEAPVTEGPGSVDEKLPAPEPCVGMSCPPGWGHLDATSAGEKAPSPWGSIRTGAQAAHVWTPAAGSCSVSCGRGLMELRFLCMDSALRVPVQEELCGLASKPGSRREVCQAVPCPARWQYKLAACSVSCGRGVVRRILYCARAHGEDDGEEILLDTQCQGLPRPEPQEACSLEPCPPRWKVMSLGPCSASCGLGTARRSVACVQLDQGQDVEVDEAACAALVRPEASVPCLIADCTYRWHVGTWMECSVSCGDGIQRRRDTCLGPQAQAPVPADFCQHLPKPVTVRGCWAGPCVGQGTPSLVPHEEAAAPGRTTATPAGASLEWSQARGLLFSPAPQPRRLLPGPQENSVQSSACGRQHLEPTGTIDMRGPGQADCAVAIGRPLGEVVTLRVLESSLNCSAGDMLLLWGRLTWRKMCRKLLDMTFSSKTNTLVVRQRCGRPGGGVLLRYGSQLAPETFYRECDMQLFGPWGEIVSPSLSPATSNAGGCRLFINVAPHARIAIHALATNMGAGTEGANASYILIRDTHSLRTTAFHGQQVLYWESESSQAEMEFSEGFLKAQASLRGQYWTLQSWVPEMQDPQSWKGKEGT

[1] = target: T2, hemagglutinin ectodomain of influenza virus H1/PR/8/34 (influenza virus H1/PR/8/34, UniProt P03452 18-528); assay: immunoassay or flow cytometry
T2 construct: extracellular domain; also called HA H1/PR/8/34
T2 sequence (P03452 18-528): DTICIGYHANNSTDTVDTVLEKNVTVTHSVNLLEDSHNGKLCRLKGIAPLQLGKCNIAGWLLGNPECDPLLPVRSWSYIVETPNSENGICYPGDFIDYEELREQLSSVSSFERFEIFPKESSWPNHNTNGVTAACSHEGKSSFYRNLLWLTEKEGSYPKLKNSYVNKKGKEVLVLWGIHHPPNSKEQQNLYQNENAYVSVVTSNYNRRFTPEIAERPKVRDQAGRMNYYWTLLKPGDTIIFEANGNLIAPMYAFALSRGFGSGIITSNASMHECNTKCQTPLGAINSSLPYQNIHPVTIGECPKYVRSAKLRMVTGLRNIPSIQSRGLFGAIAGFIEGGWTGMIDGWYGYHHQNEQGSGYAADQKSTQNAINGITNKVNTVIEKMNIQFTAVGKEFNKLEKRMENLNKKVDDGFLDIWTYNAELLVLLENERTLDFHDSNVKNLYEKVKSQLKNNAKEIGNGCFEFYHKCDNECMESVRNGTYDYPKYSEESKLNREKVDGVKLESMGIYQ

Binder | binding result (human ADAMTS13) | binding result [1]
scFv 4-303 (scFv, V domains shown) VH: QVQLVQSGAEVKKPGSSVKVSCKASGGTFSNYGISWVRQAPGQGLEWMGKIIPILGITNYAQKFQGRVTITADKSTSTAYMELSSLRSEDTAVYYCARGGGSYDFFDYWGQGTLVTVSS VL: ELELTQPPSVSVAPGKAARLSCGGEDIGIKSVHWYQQKTGRAPVLVIYNDDDRPSGIPERFAGSNSGNTATLTISRVEAGDEADYYCEVWDSLTDRVVFGGGTKLTVL | binds | –
scFv 2-302 (scFv, V domains shown) VH: EVQLVQSGAEVKKPGSSVKVSCKASGGTFSSYTINWVRQAPGQGLEWMGRIIPILGIENYAQKFQGRVTISADKSTSTAYMELSSLRSDDTAVYYCARDQVFGAYWGPGTLVTVSS VL: ELVLTQPPSVSVAPGQTAIITCGGSNIGTKSVHWYQQKSGQAPVLVVHDDAHRPSGIPERFSGSNSGNTATLTISRVEAGDEADYYCQVWESSSDHWVFGGGTKVTVL | binds | –
scFv 3-301 (scFv, V domains shown) VH: EVQLVQSGAEVKKPGSSVKVSCKASGGTFSSYAISWVRQAPGQGLEWMGGIIPILGITNYAQKFQGRVTITADESTGAAYMELSSLASEDTAVYYCARDDTGRDDYFEYWGQGTLVTVSS VL: ELVLTQPPSVSVSPGQTARITCSGDALPKQYAYWYQQKPGQAPVLVIYKDSERPSGIPERFSGSSSGTTVTLTISGVQAEDEADYYCQSADSNGTYKVFGGGTELTVL | – | no binding
scFv 1-303 (scFv, V domains shown) VH: QVQLVQSGAEVKKFGSSVKVSCKASGGTFSSYTMSWVRQAPGQGLEWMGSFIPILERANYAQKFQGRVTLTADKSTSTAYMELGSLRSEDTAVYYCARDLGDFGDSWGQGTLVTVSS VL: ELELTQPPSVSVAPGKTARITCGGNNIGSKSVHWYQQKPGQAPVLVVYDDSDRPSGIPERFSGSNSGNTATLTISRVEAGDEADYYCQVWDSSSDHYVFGTGTKVTVL | binds | no binding
scFv 1-434 (scFv, V domains shown) VH: QVQLVQSGAEVKKPGSSVKVSCKASGGSFSDYTIIWLRQARGHGLEWMGKIVPILGVTTYAQEFQGRITITADRSTSTAYMELSSLRSEDTAVYYCARFLWGLDVWGQGTTVTVSS VL: ELVLTQPPSVSVAPGQTARITCGGNNIGSKSVHWYQQKPGQAPVLVVYDDSDRPSGIPERFSGSNSGNTATLTISRVEAGDEADYYCQVWDSSSDHVVFGGGTELTVL | binds | no binding
scFv 4-307 (scFv, V domains shown) VH: QVQLVQSGAEVKKPGSSVKVSCKASGGTFSTYTINWMRQAPGQGLEWMGRIIPMFGTANYAQKFRGRVTITADESTSTAYMELSSLISEDTAIYYCARSGYSDAFDIWGQGTMVTVSS VL: ELVLTQPPSVSVAPGTTARITCGGNNIGSKSVHWYQQKPGQAPVLVIYYDSDRPSGIPERFSGSNSGNTATLTISRVEAGDEADYYCQVWDSSSDQGVFGGGTQLTVL | binds | –
scFv 2-102 (scFv, V domains shown) VH: QVQLVQSGAEVKKPGSSVKVSCRASGGTFSSYTINWVRQAPGQGLEWMGRVVPILGVTNYAQKFQGRVTITADKSTSTAYMELSSLRSEDTAVYYCARDKGYDNNYGAYWGQGTLVTVSS VL: ELVVTQPPSVSVAPGQTARITCGGNNIGSINVHWYQQKPGQAPVLVVYDDSARPSGIPERFSGSNSGNTATLTISRVEAGDEADYYCQVWDSRSDYWVFGGGTKVTVL | – | no binding
scFv 1-438 (scFv, V domains shown) VH: QVQLVQSGAEVKKPGSSVKVSCKASGGTFSNYDITWVRQAPGQGLEWVGKVIPILDVTNYAQKFQGRVTITADKSTSTAYMELSNLTSEDTAVYFCARFLWGLDVWGQGTMVTVSS VL: ELVLTQPPSVSVAPGQTARITCGGNNIGSKSVHWYQQKPGQAPVLVVYDDSDRPSGIPERFSGSNSGNTATLTISRVEAGDEADYYCQVWDSSSDHKVFGGGTELTVL | binds | no binding
scFv 2-103 (scFv, V domains shown) VH: QVQLVQSGAEVKKPGSSVKVSCKASGGTFSSYDINWVRQAPGQGLEWMGSIIPILGISNYAQKFQGRVTITADKSTSTAYMELSSLRSEDTAVYYCARDQGYANNYGAYWGQGTLVTVSS VL: ELVLTQPPSVSVAPGQTARITCGGNNIGSKSVHWYQQKPGQAPVVVVYDDSDRPSGIPERFSGSNSGNTATLTISRVEAGDEADYYCQVWDSSSDHWVFGGGTELTVL | – | no binding
scFv 3-305 (scFv, V domains shown) VH: QVQLVQSGAEVKRPGSSVKVSCKASGNTFSNYHINWVRQAPGQGLQWMGGIIPILGRTNYAQNFQGRVTITTDESTNTAYMELTSLRSEDTAVYYCAREARDSFDFWGQGTMVTVSS VL: ELVLTQPPSVSVAPGKTARITCGGNNIGSKSVHWYQQKPGQAPVLVVYDDSDRPSGIPERFSGSNSGNTATLTISRVEAGDEADYYCQVWDSSSDHWVFGGGTQLTVL | binds | –
scFv z1-303 (scFv, V domains shown) VH: QVQLQESGPGLVRPSQTLSLTCAISGDSVSNNNAAWNWIRQSPSRGLEWLGRTFYRSRWYNDYAVSVKSRIIINPDTSKNQFSLDLTSVTPEDTAVYFCAREGQWLPNYFDPWGQGTLVTVSS VL: ELVLTQPPSVSVAPGQTARITCGGNNIGSKSVHWYQQKPGQAPVLVVYDDSDRPSGIPERFSGSNSGNTATLTISGVEVGDEADYYCQVWDSSRDHVVFGGGTELTVL | binds | –
scFv 1-406 (scFv, V domains shown) VH: QVQLVQSGAEVKKFGSSVKVSCKASGGMFSSYTISWVRQGPGQGLEWMGSFIPILERANYAQKFQGRVSFTADKSTSTAYMELGSLTSEDTAVYFCARDVGDFGDSWGQGTLVTVSS VL: ELELTQPPSVSVFPGQTARITCSGDTLPKQYGNWYQQKPGQAPVVVIYKDTERPSGIPERFSGSSSGTTATLTISGVQAEDEADYYCQSADSNDWVLFGGGTKLTVL | binds | –
scFv 2-207 (scFv, V domains shown) VH: QVQLVQSGAEVKKPGSSVKVSCKASGGTFSSYAISWVRQAPGQGLEWMGGITPILGVTNYSQKFQGRVTVTADISTTTAYMELSSLTSEDTAVYYCARDQGYANDYGAYWGQGTLVTVSS VL: ELVLTQPPSVSVAPGQTARITCGGNNIGSKSVHWYQQKPGQAPVLVVHDDSDRPSGIPERFSGSNSGNTATLTIGRVGAGDEADYYCQVWDSSSDHWVFGGGTQLTVL | binds | –
scFv 2-301 (scFv, V domains shown) VH: QVQLVQSGAEVKKPGSSVKVSCKASGGTFSSYAISWVRQAPGQGLEWMGGITPILGVTNYSQKFQGRVTVTADISTTTAYMELSSLTSEDTAVYYCARDQGYANDYGAYWGQGTLVTVSS VL: ELVLTQPPSVSVAPGQTARIICGGNNIGSKTVHWYQQKPGQAPVLVVYDDSDRPSGIPERFSGSNSGNTAALTISRVEAGDEADYYCQVWHSSSDHWVFGGGTKVTVL | binds | –
scFv 1-403 (scFv, V domains shown) VH: QVQLQESGGGVVQPGRSLRLSCAASGFTFRNYAMHWVRQAPGKGLEWVAVISYDGGKEYYADSVKGRFTISRDNSKNTLYLQMNSLRAEDTAVYYCARDTFSYYDFWRAFDYWGQGTLVTVSS VL: ELVMTQSPSSLSASVGDTVTITCRASQSLRGYLNWYQQKPGEAPKLLIYAASTLRAGVPPRFSGAGYETDFSLTISNLQLEDFATYYCQQSHNVPLTFGGGTKVEIK | binds | –
scFv 3-302 (scFv, V domains shown) VH: QVQLVQSGAEVKRPGSSVKVSCKASGNTFSNYHINWVRQAPGQGLQWMGGIIPILGRTNYAQNFQGRVTITTDESTNTAYMELTSLRSEDTAVYYCAREARDSFDFWGQGTMVTVSS VL: ELVLTQPPSVSVSPGQTASITCSGDKLGHTYTSWYQQKPGQSPVLVIYQDNRRPSGLPERFSGSNSGNTATLTISRVEAGDEADYYCQVWESSSDHLVFGGGTELTVL | binds | no binding
